# Measured values reported in patent US12679878B2, “CRF2 receptor agonists and their use in therapy” (SANOFI, priority 2020, dated 2026).
# Starred links: 1 amine or outer side, 2 acyl side, 3 side chain; linkers in the order of their positions; H or OH if unused. Non-standard residues stand in square brackets, D forms with d. Groups on a side chain read outwards from the residue. No end group written: not given here. *: point of attachment. C18 diacid = O=C(O)CCCCCCCCCCCCCCCCC(=O)*; γGlu = O=C(O)[C@H](CCC(=O)[*:2])N[*:1]; AEEA = NCCOCCOCC(=O)O; Aib = CC(C)(N)C(=O)O
# Molecular target: human corticotropin-releasing factor 2α (CRF2 α receptor) (human), Q13324
# Experiment: cell-based or functional assay
# Chain of human corticotropin-releasing factor 2α (CRF2 α receptor) (human), Q13324 (Q13324 20-411): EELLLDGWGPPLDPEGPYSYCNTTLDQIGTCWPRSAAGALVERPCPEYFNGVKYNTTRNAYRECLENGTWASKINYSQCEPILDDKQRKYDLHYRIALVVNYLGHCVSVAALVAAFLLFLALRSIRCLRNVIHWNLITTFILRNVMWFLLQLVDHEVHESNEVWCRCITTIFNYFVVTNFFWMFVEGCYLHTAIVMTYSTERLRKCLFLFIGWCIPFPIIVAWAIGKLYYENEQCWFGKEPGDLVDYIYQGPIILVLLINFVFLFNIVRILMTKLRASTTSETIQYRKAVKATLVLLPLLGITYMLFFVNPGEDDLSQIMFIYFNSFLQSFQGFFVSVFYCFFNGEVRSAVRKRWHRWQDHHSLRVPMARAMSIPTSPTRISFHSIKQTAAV
"EC50 [nM], 0% HSA","EC50 [nM], 0.1% HSA",Binder
0.09 nM,3.19 nM,IVLSLD[dV]PIKLK([AEEA-AEEA-γGlu-C18 diacid])QILLKQERQK[Aib]QREQAEKNKQILERV-NH2 (N-terminus assumed; SMILES CC[C@H](C)[C@H](N)C(=O)N[C@H](C(=O)N[C@@H](CC(C)C)C(=O)N[C@@H](CO)C(=O)N[C@@H](CC(C)C)C(=O)N[C@@H](CC(=O)O)C(=O)N[C@@H](C(=O)N1CCC[C@H]1C(=O)N[C@H](C(=O)N[C@@H](CCCCN)C(=O)N[C@@H](CC(C)C)C(=O)N[C@@H](CCCCNC(=O)COCCOCCNC(=O)COCCOCCNC(=O)CC[C@H](NC(=O)CCCCCCCCCCCCCCCCC(=O)O)C(=O)O)C(=O)N[C@@H](CCC(N)=O)C(=O)N[C@H](C(=O)N[C@@H](CC(C)C)C(=O)N[C@@H](CC(C)C)C(=O)N[C@@H](CCCCN)C(=O)N[C@@H](CCC(N)=O)C(=O)N[C@@H](CCC(=O)O)C(=O)N[C@@H](CCCNC(=N)N)C(=O)N[C@@H](CCC(N)=O)C(=O)N[C@@H](CCCCN)C(=O)NC(C)(C)C(=O)N[C@@H](CCC(N)=O)C(=O)N[C@@H](CCCNC(=N)N)C(=O)N[C@@H](CCC(=O)O)C(=O)N[C@@H](CCC(N)=O)C(=O)N[C@@H](C)C(=O)N[C@@H](CCC(=O)O)C(=O)N[C@@H](CCCCN)C(=O)N[C@@H](CC(N)=O)C(=O)N[C@@H](CCCCN)C(=O)N[C@@H](CCC(N)=O)C(=O)N[C@H](C(=O)N[C@@H](CC(C)C)C(=O)N[C@@H](CCC(=O)O)C(=O)N[C@@H](CCCNC(=N)N)C(=O)N[C@H](C(N)=O)C(C)C)[C@@H](C)CC)[C@@H](C)CC)[C@@H](C)CC)C(C)C)C(C)C) [SEQ ID NO: 133]
0.07 nM,3.44 nM,IVLSLD[dV]PIKLK([AEEA-AEEA-γGlu-C18 diacid])QILLKQERQK[Aib]QREKAEKNKQILAQV-NH2 (N-terminus assumed; SMILES CC[C@H](C)[C@H](N)C(=O)N[C@H](C(=O)N[C@@H](CC(C)C)C(=O)N[C@@H](CO)C(=O)N[C@@H](CC(C)C)C(=O)N[C@@H](CC(=O)O)C(=O)N[C@@H](C(=O)N1CCC[C@H]1C(=O)N[C@H](C(=O)N[C@@H](CCCCN)C(=O)N[C@@H](CC(C)C)C(=O)N[C@@H](CCCCNC(=O)COCCOCCNC(=O)COCCOCCNC(=O)CC[C@H](NC(=O)CCCCCCCCCCCCCCCCC(=O)O)C(=O)O)C(=O)N[C@@H](CCC(N)=O)C(=O)N[C@H](C(=O)N[C@@H](CC(C)C)C(=O)N[C@@H](CC(C)C)C(=O)N[C@@H](CCCCN)C(=O)N[C@@H](CCC(N)=O)C(=O)N[C@@H](CCC(=O)O)C(=O)N[C@@H](CCCNC(=N)N)C(=O)N[C@@H](CCC(N)=O)C(=O)N[C@@H](CCCCN)C(=O)NC(C)(C)C(=O)N[C@@H](CCC(N)=O)C(=O)N[C@@H](CCCNC(=N)N)C(=O)N[C@@H](CCC(=O)O)C(=O)N[C@@H](CCCCN)C(=O)N[C@@H](C)C(=O)N[C@@H](CCC(=O)O)C(=O)N[C@@H](CCCCN)C(=O)N[C@@H](CC(N)=O)C(=O)N[C@@H](CCCCN)C(=O)N[C@@H](CCC(N)=O)C(=O)N[C@H](C(=O)N[C@@H](CC(C)C)C(=O)N[C@@H](C)C(=O)N[C@@H](CCC(N)=O)C(=O)N[C@H](C(N)=O)C(C)C)[C@@H](C)CC)[C@@H](C)CC)[C@@H](C)CC)C(C)C)C(C)C) [SEQ ID NO: 134]

# Continued, binder first:
Binder,"EC50 [nM], 0% HSA","EC50 [nM], 0.1% HSA"
IVLSLD[dV]PIKLK([AEEA-AEEA-γGlu-C18 diacid])QILLEQERQK[Aib]QRQQAEKNKQILAQV-NH2 (N-terminus assumed; SMILES CC[C@H](C)[C@H](N)C(=O)N[C@H](C(=O)N[C@@H](CC(C)C)C(=O)N[C@@H](CO)C(=O)N[C@@H](CC(C)C)C(=O)N[C@@H](CC(=O)O)C(=O)N[C@@H](C(=O)N1CCC[C@H]1C(=O)N[C@H](C(=O)N[C@@H](CCCCN)C(=O)N[C@@H](CC(C)C)C(=O)N[C@@H](CCCCNC(=O)COCCOCCNC(=O)COCCOCCNC(=O)CC[C@H](NC(=O)CCCCCCCCCCCCCCCCC(=O)O)C(=O)O)C(=O)N[C@@H](CCC(N)=O)C(=O)N[C@H](C(=O)N[C@@H](CC(C)C)C(=O)N[C@@H](CC(C)C)C(=O)N[C@@H](CCC(=O)O)C(=O)N[C@@H](CCC(N)=O)C(=O)N[C@@H](CCC(=O)O)C(=O)N[C@@H](CCCNC(=N)N)C(=O)N[C@@H](CCC(N)=O)C(=O)N[C@@H](CCCCN)C(=O)NC(C)(C)C(=O)N[C@@H](CCC(N)=O)C(=O)N[C@@H](CCCNC(=N)N)C(=O)N[C@@H](CCC(N)=O)C(=O)N[C@@H](CCC(N)=O)C(=O)N[C@@H](C)C(=O)N[C@@H](CCC(=O)O)C(=O)N[C@@H](CCCCN)C(=O)N[C@@H](CC(N)=O)C(=O)N[C@@H](CCCCN)C(=O)N[C@@H](CCC(N)=O)C(=O)N[C@H](C(=O)N[C@@H](CC(C)C)C(=O)N[C@@H](C)C(=O)N[C@@H](CCC(N)=O)C(=O)N[C@H](C(N)=O)C(C)C)[C@@H](C)CC)[C@@H](C)CC)[C@@H](C)CC)C(C)C)C(C)C) [SEQ ID NO: 131],0.11 nM,2.44 nM
IVLSLD[dV]PIKLK([AEEA-AEEA-γGlu-C18 diacid])QILLKQERQK[Aib]QREQAEKNKQILAQV-NH2 (N-terminus assumed; SMILES CC[C@H](C)[C@H](N)C(=O)N[C@H](C(=O)N[C@@H](CC(C)C)C(=O)N[C@@H](CO)C(=O)N[C@@H](CC(C)C)C(=O)N[C@@H](CC(=O)O)C(=O)N[C@@H](C(=O)N1CCC[C@H]1C(=O)N[C@H](C(=O)N[C@@H](CCCCN)C(=O)N[C@@H](CC(C)C)C(=O)N[C@@H](CCCCNC(=O)COCCOCCNC(=O)COCCOCCNC(=O)CC[C@H](NC(=O)CCCCCCCCCCCCCCCCC(=O)O)C(=O)O)C(=O)N[C@@H](CCC(N)=O)C(=O)N[C@H](C(=O)N[C@@H](CC(C)C)C(=O)N[C@@H](CC(C)C)C(=O)N[C@@H](CCCCN)C(=O)N[C@@H](CCC(N)=O)C(=O)N[C@@H](CCC(=O)O)C(=O)N[C@@H](CCCNC(=N)N)C(=O)N[C@@H](CCC(N)=O)C(=O)N[C@@H](CCCCN)C(=O)NC(C)(C)C(=O)N[C@@H](CCC(N)=O)C(=O)N[C@@H](CCCNC(=N)N)C(=O)N[C@@H](CCC(=O)O)C(=O)N[C@@H](CCC(N)=O)C(=O)N[C@@H](C)C(=O)N[C@@H](CCC(=O)O)C(=O)N[C@@H](CCCCN)C(=O)N[C@@H](CC(N)=O)C(=O)N[C@@H](CCCCN)C(=O)N[C@@H](CCC(N)=O)C(=O)N[C@H](C(=O)N[C@@H](CC(C)C)C(=O)N[C@@H](C)C(=O)N[C@@H](CCC(N)=O)C(=O)N[C@H](C(N)=O)C(C)C)[C@@H](C)CC)[C@@H](C)CC)[C@@H](C)CC)C(C)C)C(C)C) [SEQ ID NO: 130],0.05 nM,2.11 nM
IVLSLD[dV]PIKLK([AEEA-AEEA-γGlu-C18 diacid])QILLEQERQK[Aib]QREQAEKNKQILAQV-NH2 (N-terminus assumed; SMILES CC[C@H](C)[C@H](N)C(=O)N[C@H](C(=O)N[C@@H](CC(C)C)C(=O)N[C@@H](CO)C(=O)N[C@@H](CC(C)C)C(=O)N[C@@H](CC(=O)O)C(=O)N[C@@H](C(=O)N1CCC[C@H]1C(=O)N[C@H](C(=O)N[C@@H](CCCCN)C(=O)N[C@@H](CC(C)C)C(=O)N[C@@H](CCCCNC(=O)COCCOCCNC(=O)COCCOCCNC(=O)CC[C@H](NC(=O)CCCCCCCCCCCCCCCCC(=O)O)C(=O)O)C(=O)N[C@@H](CCC(N)=O)C(=O)N[C@H](C(=O)N[C@@H](CC(C)C)C(=O)N[C@@H](CC(C)C)C(=O)N[C@@H](CCC(=O)O)C(=O)N[C@@H](CCC(N)=O)C(=O)N[C@@H](CCC(=O)O)C(=O)N[C@@H](CCCNC(=N)N)C(=O)N[C@@H](CCC(N)=O)C(=O)N[C@@H](CCCCN)C(=O)NC(C)(C)C(=O)N[C@@H](CCC(N)=O)C(=O)N[C@@H](CCCNC(=N)N)C(=O)N[C@@H](CCC(=O)O)C(=O)N[C@@H](CCC(N)=O)C(=O)N[C@@H](C)C(=O)N[C@@H](CCC(=O)O)C(=O)N[C@@H](CCCCN)C(=O)N[C@@H](CC(N)=O)C(=O)N[C@@H](CCCCN)C(=O)N[C@@H](CCC(N)=O)C(=O)N[C@H](C(=O)N[C@@H](CC(C)C)C(=O)N[C@@H](C)C(=O)N[C@@H](CCC(N)=O)C(=O)N[C@H](C(N)=O)C(C)C)[C@@H](C)CC)[C@@H](C)CC)[C@@H](C)CC)C(C)C)C(C)C) [SEQ ID NO: 129],0.15 nM,3.02 nM
IVLSLD[dV]PIKLK([AEEA-AEEA-γGlu-C18 diacid])QILLEQERQK[Aib]QREQAEKNKQILERV-NH2 (N-terminus assumed; SMILES CC[C@H](C)[C@H](N)C(=O)N[C@H](C(=O)N[C@@H](CC(C)C)C(=O)N[C@@H](CO)C(=O)N[C@@H](CC(C)C)C(=O)N[C@@H](CC(=O)O)C(=O)N[C@@H](C(=O)N1CCC[C@H]1C(=O)N[C@H](C(=O)N[C@@H](CCCCN)C(=O)N[C@@H](CC(C)C)C(=O)N[C@@H](CCCCNC(=O)COCCOCCNC(=O)COCCOCCNC(=O)CC[C@H](NC(=O)CCCCCCCCCCCCCCCCC(=O)O)C(=O)O)C(=O)N[C@@H](CCC(N)=O)C(=O)N[C@H](C(=O)N[C@@H](CC(C)C)C(=O)N[C@@H](CC(C)C)C(=O)N[C@@H](CCC(=O)O)C(=O)N[C@@H](CCC(N)=O)C(=O)N[C@@H](CCC(=O)O)C(=O)N[C@@H](CCCNC(=N)N)C(=O)N[C@@H](CCC(N)=O)C(=O)N[C@@H](CCCCN)C(=O)NC(C)(C)C(=O)N[C@@H](CCC(N)=O)C(=O)N[C@@H](CCCNC(=N)N)C(=O)N[C@@H](CCC(=O)O)C(=O)N[C@@H](CCC(N)=O)C(=O)N[C@@H](C)C(=O)N[C@@H](CCC(=O)O)C(=O)N[C@@H](CCCCN)C(=O)N[C@@H](CC(N)=O)C(=O)N[C@@H](CCCCN)C(=O)N[C@@H](CCC(N)=O)C(=O)N[C@H](C(=O)N[C@@H](CC(C)C)C(=O)N[C@@H](CCC(=O)O)C(=O)N[C@@H](CCCNC(=N)N)C(=O)N[C@H](C(N)=O)C(C)C)[C@@H](C)CC)[C@@H](C)CC)[C@@H](C)CC)C(C)C)C(C)C) [SEQ ID NO: 132],0.38 nM,8.76 nM
